Experimental findings from US20160369258A1, “RESTRICTING NUCLEAR PROTEIN TO SPECIFIC PHASES OF THE CELL CYCLE” (UNIVERSITY OF WASHINGTON, priority 2014, published 2016) are described below.

Test [1] concerns Ramos B cells. Put plainly: sIgM loss frequency assay (surrogate for SHM). The test is classed as cell-based, human. Particulars: day 7 after sorting mCherry+ cells. An excerpt:
sIgM loss frequency provides a convenient surrogate assay for SHM (45, 46). To determine fractions of sIgM− cells, 2-5×10^5 cells were fixed in 3.7% formaldehyde and stained with anti-human IgM (1:500, Souther Biotech), and sIgM− variants quantified by FACS as described (47). To establish that selective pressure was not sufficient to affect the frequency of sIgM loss, we assayed loss of mCherry signal posttransduction (FIG. 18).

In test [2] the test system is Ramos B cells. In words: Subcellular distribution of AID fusion proteins determined by HCS microscopy. In kind it is cell-based, human. Particulars: for Nuclear mCherry, mean: corrected for cytoplasmic baseline. Here is the method:
Cells were fixed in 3.7% formaldehyde at a density of 2×10^6 cells/ml and stained with whole cell stain (HCS CellMask, Invitrogen) and DAPI (0.2 μg/ml). Fixed cells were then washed, resuspended in PBS and spun down in a 96-well μclear microplate (Greiner Bio One) for imaging. Cells were imaged by Thermo Scientific ArrayScan VTI HCS reader, analyzing 3000-6000 cells in each treatment group. Cells with very low or very high mCherry signals were eliminated, gating based on the mock transduction control (low) and eliminating cells with signals more than 5 SD from the mean (high). The HCS Colocalization BioApplication protocol was used to determine nuclear and whole cell boundaries in individual cells as defined by DAPI and HCS CellMask, respectively, thereby defining the cytoplasmic region as the region between nuclear and whole cell boundaries. The average signal in the nuclear and cytoplasmic compartments was determined in individual cells by measuring the total intensity of mCherry signal divided by area within each compartment. The ratio of nuclear to cytoplasmic signal (N/C) was calculated as the ratio of the average signals of nuclear and cytoplasmic mCherry.
G1, S, and G2/M phase cells were distinguished by ranking DNA content as determined by total DAPI signal, and specific fractions of the population assigned to G1, S and G2/M phases (FIG. 16A). HCS results were expressed in terms of average signal, to ensure independence of cell size, which increases during cell cycle (FIG. 16).
Cells were fixed and stained with whole cell stain (HCS CellMask, Invitrogen) and DAPI, washed, and imaged by Thermo Scientific ArrayScan VTI HCS reader, analyzing 3000-6000 cells in each treatment group. To enable accurate comparisons among different transductant populations, nuclear signal for each cell was corrected by subtraction of the corresponding baseline value, as established by linear regression analysis. HCS results were expressed in terms of average signal, to ensure independence of cell size.

B1: AID^F193A-mCherry: AID-mCherry carrying the AID F193A mutation, which prevents nuclear export (protein, UniProt Q9GZX7 1-198, looked up, variant F193A)
Single-stranded DNA cytosine …: MDSLLMNRRKFLYQFKNVRWAKGRRETYLCYVVKRRDSATSFSLDFGYLRNKNGCHVELLFLRYISDWDLDPGRCYRVTWFTSWSPCYDCARHVADFLRGNPNLSLRIFTARLYFCEDRKAEPEGLRRLHRAGVQIAIMTFKDYFYCWNTFVENHERTFKAWEGLHENSVRLSRQLRRILLPLYEVDDLRDAARTLGL
modifications: C-terminal mCherry fusion
notes: AID-mCherry carrying the AID F193A mutation, which prevents nuclear export
Regarding B1, in the test on Ramos B cells [1], the sIgM loss rates entry is reported as “greatly elevated”. Also, the “subcellular localization by HCS across cell cycle” value with Ramos B cells [2] (G1, S, G2/M phase cells) is given as “persistent nuclear localization”. Further, the “Cytoplasmic mCherry, mean” value in the test on Ramos B cells [2] (G1 phase cells) is 66.4; in the test on Ramos B cells [2] (G2/M phase cells), 60.2; with Ramos B cells [2] (S phase cells), 58.6; with Ramos B cells [2] (whole transductant population) it was 62.9. Also, the “Total mCherry, mean” value in the test with Ramos B cells [2] (G1 phase cells) came out at 117.5; in the test with Ramos B cells [2] (G2/M phase cells), 109.7; with Ramos B cells [2] (S phase cells), 103.2; with Ramos B cells [2] (whole transductant population), 111.4. In addition, the “Nuclear mCherry, mean” value in the test with Ramos B cells [2] (G1 phase cells) was found to be 75.4; in the test with Ramos B cells [2] (G2/M phase cells), 63.6; in the test on Ramos B cells [2] (S phase cells) it was 56.8; with Ramos B cells [2] (whole transductant population) it was 67.5.
